± gives the standard deviation of the averaged measurements.
Each sequence was assayed on Saccharomyces cerevisiae (assay: protein stability index of tFT-peptide fusion (C-terminal peptide) (PSI (0-1 scale)); higher = more stable (slower turnover)). Conditions: genetic background: wild type; temperature: 30 C.
Description: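 MPS profiling in S. cerevisiae of the yeast C-terminome library: the last 12 aa of each annotated ORF are fused to the C-terminus of a sfGFP-mCherry timer, after a GGGS linker. Cells are FACS-sorted into 8 mCherry/sfGFP bins and deep-sequenced. PSI runs from 0 (unstable) to 1 (stable); wild type and das1Δ backgrounds, two technical replicates each.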

**Q.** How did the protein stability index turn out when KNVTINTRETPL [DAL81 C-terminal 12 aa] was run?
**A.** 0.6712 ± 0.0061

**Q.** Which protein stability index does the source give for KPDSTAVRNEDE [YNR065C C-terminal 12 aa] here?
**A.** 0.66 ± 0.072

**Q.** How did the protein stability index turn out when KQAIYTRAAASE [RPS25B C-terminal 12 aa] was run?
**A.** 0.69 ± 0.0061

**Q.** With KQGKKKKDCVIM [SKT5 C-terminal 12 aa] as the sequence, how does the protein stability index read?
**A.** 0.696 ± 0.047

**Q.** How did the protein stability index turn out when KQKEAWYSFLFK [SCO1 C-terminal 12 aa] was run?
**A.** 0.68151 ± 0.00058

**Q.** KQLGSSHNYTVN [SKG6 C-terminal 12 aa] was tested. Which protein stability index did it give?
**A.** 0.696 ± 0.0079

**Q.** How did the protein stability index turn out when KQPRFQLLFEFS [TTI2 C-terminal 12 aa] was run?
**A.** 0.6511 ± 0.0017

**Q.** KQYIEPESVKPN [ABD1 C-terminal 12 aa] was tested. Which protein stability index did it give?
**A.** 0.722 ± 0.051

**Q.** With KRIDSYIDEMTT [MCO14 C-terminal 12 aa] as the sequence, how does the protein stability index read?
**A.** 0.664 ± 0.054

**Q.** With KRLHQLDGIPHA [MEO1 C-terminal 12 aa] as the sequence, how does the protein stability index read?
**A.** 0.6852 ± 0.0018

**Q.** With KRRIEEIQMLFE [RAD5 C-terminal 12 aa] as the sequence, how does the protein stability index read?
**A.** 0.683 ± 0.036

**Q.** KRSLRRNARKGL [ESC8 C-terminal 12 aa] was tested. Which protein stability index did it give?
**A.** 0.687 ± 0.026

**Q.** With KSALSKTLGLNK [NHA1 C-terminal 12 aa] as the sequence, how does the protein stability index read?
**A.** 0.7038 ± 0.0048

**Q.** How did the protein stability index turn out when KSCGNNAGARIC [HO C-terminal 12 aa] was run?
**A.** 0.452 ± 0.022

**Q.** How did the protein stability index turn out when KSLETFRTTNTL [FBA1 C-terminal 12 aa] was run?
**A.** 0.7271 ± 0.0061

**Q.** With KSPSITVNEFFH [RCN2 C-terminal 12 aa] as the sequence, how does the protein stability index read?
**A.** 0.734 ± 0.021

**Q.** With KSVPILLPQVCM [YIL059C C-terminal 12 aa] as the sequence, how does the protein stability index read?
**A.** 0.578 ± 0.0092

**Q.** How did the protein stability index turn out when KTDKVLYKRNGY [HPA3 C-terminal 12 aa] was run?
**A.** 0.675 ± 0.065

**Q.** With KTFKLLTNKWIH [YAR009C C-terminal 12 aa] as the sequence, how does the protein stability index read?
**A.** 0.587 ± 0.014

**Q.** How did the protein stability index turn out when KVFDRSGIVLEK [QRI1 C-terminal 12 aa] was run?
**A.** 0.701 ± 0.016

**Q.** With KVKCALERKPYL [ZAP1 C-terminal 12 aa] as the sequence, how does the protein stability index read?
**A.** 0.6754 ± 0.00096

**Q.** For KVVTRSIVLWGV [YGL235W C-terminal 12 aa], which protein stability index is on record?
**A.** 0.615 ± 0.016

**Q.** KYFLRMVYPMKV [ESBP6 C-terminal 12 aa] was tested. Which protein stability index did it give?
**A.** 0.404 ± 0.031

**Q.** With LADHLMEKYLSI [TFC4 C-terminal 12 aa] as the sequence, how does the protein stability index read?
**A.** 0.658 ± 0.01

**Q.** How did the protein stability index turn out when LALNRDDPPDML [PEA2 C-terminal 12 aa] was run?
**A.** 0.755 ± 0.13

**Q.** For LAQQLQQDSEAS [SWC5 C-terminal 12 aa], which protein stability index is on record?
**A.** 0.701 ± 0.0092

**Q.** Which protein stability index does the source give for LASDFIGRGYDD [WTM2 C-terminal 12 aa] here?
**A.** 0.678 ± 0.011

**Q.** With LATMILARMSCS [IRA1 C-terminal 12 aa] as the sequence, how does the protein stability index read?
**A.** 0.657 ± 0.035

**Q.** For LAYPACLACQAS [VPS69 C-terminal 12 aa], which protein stability index is on record?
**A.** 0.59 ± 0.011

**Q.** Which protein stability index does the source give for LCHYLTPYMIIY [YOL106W C-terminal 12 aa] here?
**A.** 0.45 ± 0.011

**Q.** How did the protein stability index turn out when “LCILRIVGVANF [YER039C-A C-terminal 12 aa]” was run?
**A.** 0.4474 ± 0.0034

**Q.** Which protein stability index does the source give for LCSIYKALLLGP [ATF1 C-terminal 12 aa] here?
**A.** 0.67 ± 0.0087

**Q.** For LDAENNNKCSIM [RHB1 C-terminal 12 aa], which protein stability index is on record?
**A.** 0.758 ± 0.027

**Q.** With LDAEYYIKFASK [ERD1 C-terminal 12 aa] as the sequence, how does the protein stability index read?
**A.** 0.69 ± 0.024

**Q.** For LDFAKRKLKKKQ [TFB2 C-terminal 12 aa], which protein stability index is on record?
**A.** 0.622 ± 0.034

**Q.** Which protein stability index does the source give for LDMAVIDNTTHN [SDO1 C-terminal 12 aa] here?
**A.** 0.682 ± 0.016

**Q.** Which protein stability index does the source give for LDNIERDANDLS [LAM4 C-terminal 12 aa] here?
**A.** 0.678 ± 0.008

**Q.** How did the protein stability index turn out when LDTLQTASQYLP [VID22 C-terminal 12 aa] was run?
**A.** 0.749 ± 0.079

**Q.** How did the protein stability index turn out when LDYALVEMDKLF [UTP13 C-terminal 12 aa] was run?
**A.** 0.708 ± 0.039

**Q.** How did the protein stability index turn out when LEELDIEEEYSD [ACL4 C-terminal 12 aa] was run?
**A.** 0.673 ± 0.0086

**Q.** How did the protein stability index turn out when LEHGLKVRMDEE [HIS7 C-terminal 12 aa] was run?
**A.** 0.72 ± 0.06

**Q.** How did the protein stability index turn out when LELLLAADYLSI [ELC1 C-terminal 12 aa] was run?
**A.** 0.682 ± 0.049

**Q.** LELVLKNKEMEN [RSA3 C-terminal 12 aa] was tested. Which protein stability index did it give?
**A.** 0.706 ± 0.092

**Q.** LEQGFKVVSAKE [YCS4 C-terminal 12 aa] was tested. Which protein stability index did it give?
**A.** 0.6812 ± 0.0067

**Q.** LEQYEKTLVHDD [GCV3 C-terminal 12 aa] was tested. Which protein stability index did it give?
**A.** 0.678 ± 0.05

**Q.** Which protein stability index does the source give for LERILHEMHPPA [EOS1 C-terminal 12 aa] here?
**A.** 0.726 ± 0.025

**Q.** Which protein stability index does the source give for LETLKKKKKRNN [MAK5 C-terminal 12 aa] here?
**A.** 0.66348 ± 0.00034

**Q.** How did the protein stability index turn out when LFFLVGLQLAIP [YGR022C C-terminal 12 aa] was run?
**A.** 0.327 ± 0.0074

**Q.** How did the protein stability index turn out when “LFQPIIVKPLRS [YHR007C-A C-terminal 12 aa]” was run?
**A.** 0.625 ± 0.023

**Q.** How did the protein stability index turn out when LFTAMRTVLFGK [CBP6 C-terminal 12 aa] was run?
**A.** 0.72 ± 0.14

**Q.** LGYTDDEIYNRQ [SER2 C-terminal 12 aa] was tested. Which protein stability index did it give?
**A.** 0.681 ± 0.036

**Q.** How did the protein stability index turn out when LILHFVCLHFIN [OST2 C-terminal 12 aa] was run?
**A.** 0.184 ± 0.027

**Q.** LIRKMYYKNLKK [SSL2 C-terminal 12 aa] was tested. Which protein stability index did it give?
**A.** 0.757 ± 0.028

**Q.** For LIYLNETLGTRL [IRC19 C-terminal 12 aa], which protein stability index is on record?
**A.** 0.671 ± 0.003

**Q.** With LKDEKRGDNVLA [THS1 C-terminal 12 aa] as the sequence, how does the protein stability index read?
**A.** 0.67 ± 0.018

**Q.** How did the protein stability index turn out when LKHNGQRKLAST [ANT1 C-terminal 12 aa] was run?
**A.** 0.701 ± 0.033

**Q.** With LKKPRSGFHVIV [YFR006W C-terminal 12 aa] as the sequence, how does the protein stability index read?
**A.** 0.6371 ± 0.0052

**Q.** How did the protein stability index turn out when LKQENAYLLIRR [RPB8 C-terminal 12 aa] was run?
**A.** 0.68 ± 0.01

**Q.** Which protein stability index does the source give for LKRTAIQFAAFS [SEC5 C-terminal 12 aa] here?
**A.** 0.6844 ± 0.0012

**Q.** For LLIQEEMKLKEV [YPK9 C-terminal 12 aa], which protein stability index is on record?
**A.** 0.703 ± 0.022

**Q.** LLLPITSSLLFI [MIN4 C-terminal 12 aa] was tested. Which protein stability index did it give?
**A.** 0.62 ± 0.021

**Q.** How did the protein stability index turn out when “LLMVGVPLLFSS [YPR159C-A C-terminal 12 aa]” was run?
**A.** 0.6282 ± 0.0051

**Q.** Which protein stability index does the source give for LLSLLRVLKQPH [CSS1 C-terminal 12 aa] here?
**A.** 0.66 ± 0.011

**Q.** For LMGAALAAVMLL [FIT3 C-terminal 12 aa], which protein stability index is on record?
**A.** 0.6409 ± 0.0026

**Q.** For LMNAQSNETKLN [PTC6 C-terminal 12 aa], which protein stability index is on record?
**A.** 0.692 ± 0.033

**Q.** With LMPSASLQDFYG [VID27 C-terminal 12 aa] as the sequence, how does the protein stability index read?
**A.** 0.726 ± 0.014

**Q.** LNFFAEETLDFE [EAT1 C-terminal 12 aa] was tested. Which protein stability index did it give?
**A.** 0.689 ± 0.033

**Q.** LNLPWKRKKTTI [YCR101C C-terminal 12 aa] was tested. Which protein stability index did it give?
**A.** 0.686 ± 0.019

**Q.** With LNPIRSLRYCNY [YPP1 C-terminal 12 aa] as the sequence, how does the protein stability index read?
**A.** 0.629 ± 0.024

**Q.** How did the protein stability index turn out when LNSIDPALISKY [AFT2 C-terminal 12 aa] was run?
**A.** 0.741 ± 0.036

**Q.** How did the protein stability index turn out when LQALIIVQVMFS [YLL059C C-terminal 12 aa] was run?
**A.** 0.157 ± 0.013

**Q.** For LQAVAVAVSTKK [FAS2 C-terminal 12 aa], which protein stability index is on record?
**A.** 0.65 ± 0.033

**Q.** How did the protein stability index turn out when LQESKSQEKNKI [MRX19 C-terminal 12 aa] was run?
**A.** 0.782 ± 0.06

**Q.** Which protein stability index does the source give for LQVKAVRAKLDE [ALD4 C-terminal 12 aa] here?
**A.** 0.68 ± 0.037

**Q.** LREMMNKDFAGL [PSD2 C-terminal 12 aa] was tested. Which protein stability index did it give?
**A.** 0.698 ± 0.0081

**Q.** Which protein stability index does the source give for “LRKNRSLDERYF [YML057C-A C-terminal 12 aa]” here?
**A.** 0.6568 ± 0.0029

**Q.** How did the protein stability index turn out when LRNKPFWENKRL [IPL1 C-terminal 12 aa] was run?
**A.** 0.696 ± 0.015

**Q.** Which protein stability index does the source give for LRRIAKKHHKKK [SPB1 C-terminal 12 aa] here?
**A.** 0.722 ± 0.034

**Q.** How did the protein stability index turn out when LRRLTSPSRTQP [BAG7 C-terminal 12 aa] was run?
**A.** 0.705 ± 0.012

**Q.** Which protein stability index does the source give for LRSKGKRYDTRS [YJR018W C-terminal 12 aa] here?
**A.** 0.708 ± 0.024

**Q.** For LRSKSRLRGSHT [AHC1 C-terminal 12 aa], which protein stability index is on record?
**A.** 0.654 ± 0.038

**Q.** Which protein stability index does the source give for LSATIFLRGFLL [YIM2 C-terminal 12 aa] here?
**A.** 0.649 ± 0.031

Source: the supplement of paper PMC10724198
